Test results from patent US20250263469A1 (HOSPITAL FOR SICK CHILDREN, published 2025).

B1: mAb 46 (antibody, V domains shown)
VH: EVQLLESGGGLVQPGRSLRLSCAASGFTFSSYAMSWVRQAPGKGLEWVSTIYSGGSTYYADSVKGRFTISRDNSKNTLYLQMNSLRAEDTAVYYCARGDSRDAFDIWGQGTMVTVSS
VL: DIQMTQSPSSLSASVGDRVTITCRASQSISSWLAWYQQKPGKAPKLLIYDASNLETGVPSRFSGSGSGTDFTLTISSLQPEDFATYYCQQSYSTPFTFGPGTKVDIKR
B2: mAb 82 (antibody, V domains shown)
VH: QVQLVQSGAEVKKPGASVKVSCKASGGSFSTSAFYWVRQAPGQGLEWMGWINPYTGGTNYAQKFQGRVTMTRDTSTSTVYMELSSLRSEDTAVYYCARSRALYGSGSYFDYWGQGTLVTVSS
VL: DIQMTQSPSSLSASVGDRVTITCRASQVISNYLAWYQQKPGKAPKLLIYDASNLETGVPSRFSGSGSGTDFTLTISSLQPEDFATYYCQQSFSPPPTFGQGTRLEIKR
B3: mAb 324 (antibody, V domains shown)
VH: QVQLVQSGAEVKKPGASVKVSCKASGGTFNNYGISWVRQAPGQGLEWMGWMNPNSGNTGYAQKFQGRVTMTRDTSTSTVYMELSSLRSEDTAVYYCARVGDYGDYIVSPFDLWGRGTLVTVSS
VL: DIQMTQSPSSLSASVGDRVTITCRASQSITTYLNWYQQKPGKAPKLLIYDASNLETGVPSRFSGSGSGTDFTLTISSLQPEDFATYYCQQSYSTPPTFGQGTKVEIKR
B4: mAb 236 (antibody, V domains shown)
VH: QVQLVQSGAEVKKPGASVKVSCKASGGTFTSYGINWVRQAPGQGLEWMGWMNPNSGNTGYAQKFQGRVTMTRDTSTSTVYMELSSLRSEDTAVYYCASRGIQLLPRGMDVWGQGTTVTVSS
VL: not shown
B5: mAb 52 (antibody, V domains shown)
VH: QVQLVQSGAEVKKPGSSVKVSCKASGYTFTSYGISWVRQAPGQGLEWMGGIIPMFGTTNYAQKFQGRVTITADKSTSTAYMELSSLRSEDTAVYYCARDRGDTIDYWGQGTLVTVSS
VL: DIQMTQSPSSLSASVGDRVTITCRASQGISNNLNWYQQKPGKAPKLLIYAASSLESGVPSRFSGSGSGTDFTLTISSLQPEDFATYYCQQGNGFPLTFGPGTKVDIKR

Key:
[1] = biological target: T1, SARS-CoV-2 receptor binding domain (RBD), wild type (BEI NR52309) (SARS-CoV-2, UniProt P0DTC2 319-541); assay: BLI competition on His-tagged RBD, signal of the 2nd Ab after 1st Ab 324
[2] = biological target: T1, SARS-CoV-2 receptor binding domain …; assay: BLI competition on His-tagged RBD, signal of the 2nd Ab after 1st Ab 298
[3] = biological target: SARS-CoV-2 Spike A475V on pseudotyped virus (SARS-CoV-2, UniProt P0DTC2 14-1273); assay: cell-based or functional assay
[4] = biological target: SARS-CoV-2 Spike N439K on pseudotyped virus (SARS-CoV-2, UniProt P0DTC2 14-1273); assay: cell-based or functional assay
[5] = biological target: SARS-CoV-2 Spike L452R on pseudotyped virus (SARS-CoV-2, UniProt P0DTC2 14-1273); assay: cell-based or functional assay
[6] = biological target: SARS-CoV-2 Spike D614G on pseudotyped virus (SARS-CoV-2, UniProt P0DTC2 14-1273); assay: cell-based or functional assay
[7] = biological target: SARS-CoV-2 Spike V483A on pseudotyped virus (SARS-CoV-2, UniProt P0DTC2 14-1273); assay: cell-based or functional assay
[8] = biological target: T1, SARS-CoV-2 receptor binding domain …; assay: BLI competition on His-tagged RBD, signal of the 2nd Ab after 1st Ab 236
[9] = biological target: Spike of authentic SARS-CoV-2/SB2-P4-PB virus (SARS-CoV-2, UniProt P0DTC2 14-1273); assay: cell-based or functional assay

Binder	RBD binding [1]	RBD binding [2]	Potency change vs WT PsV [3] [fold]	Potency change vs WT PsV [4] [fold]	IC50 (PsV neutralisation) [5] [µg/mL]	Potency change vs WT PsV [6] [fold]	Potency change vs WT PsV [7] [fold]	RBD binding [8]	IC50 SARS-CoV2/SB2-P4-PB (authentic virus), IgG [9] [µg/mL]	Potency change vs WT PsV [5] [fold]
B1	1.7	1.7	1.9	4.1	> 100	1.9	2	1.7	19	–
B2	0.8	0.5	-5.7	1.1	–	–	0.2	–	–	-8.1
B3	0.4	–	-0.6	-1	–	2.6	-0.4	0.3	21	0.8
B4	0.4	–	1.4	2.1	–	0.7	1.9	0.3	5.5	-0.6
B5	1.5	1.4	1.1	1.8	> 100	0.4	–	1.5	6.2	–
